Measurements from PMC11342145.

Columns and labels:
Grb7 = Grb7 (UniProt Q03160); assay: fragment AP-MS, label-free quantification; conditions: reference: YYYS fragment
Grb2 [1] = target: Grb2 (UniProt Q60631); assay: fragment AP-MS, label-free quantification; conditions: reference: YYYS fragment; sites Y239,Y240
Pik3r1 [2] = target: Pik3r1 (UniProt P26450); assay: fragment AP-MS, label-free quantification
Arhgef5 = Arhgef5 (UniProt E9Q7D5); assay: fragment AP-MS, label-free quantification; conditions: reference: YYYS fragment; sites Y239,Y240
Grb2 [3] = target: Grb2 (UniProt Q60631); assay: fragment affinity purification, western blot; conditions: reference: YYYS fragment; sites Y239,Y240
Pik3r1 [4] = target: Pik3r1 (UniProt P26450); assay: fragment affinity purification, western blot
Ubash3b (Sts1) [5] = target: Ubash3b (Sts1) (UniProt Q8BGG7); assay: fragment AP-MS, label-free quantification
Plcg1 [6] = target: Plcg1 (UniProt Q62077); assay: fragment AP-MS, label-free quantification
Ubash3b (Sts1) [7] = target: Ubash3b (Sts1) (UniProt Q8BGG7); assay: fragment affinity purification, western blot; conditions: reference: pYpYYS fragment; sites Y313,S335
Plcg1 [8] = target: Plcg1 (UniProt Q62077); assay: fragment affinity purification, western blot; conditions: reference: pYpYYS fragment; sites Y313,S335
[9] = reference: YYYS fragment, sites Y239,Y240
[10] = reference: YYYS fragment, sites Y239,Y240,Y313,S335
[11] = reference: pYpYYS fragment, sites Y313,S335

Measured: binding against the reference

Sequence of UniProt P26450 (P26450 whole entry, looked up, the tested form may be a part): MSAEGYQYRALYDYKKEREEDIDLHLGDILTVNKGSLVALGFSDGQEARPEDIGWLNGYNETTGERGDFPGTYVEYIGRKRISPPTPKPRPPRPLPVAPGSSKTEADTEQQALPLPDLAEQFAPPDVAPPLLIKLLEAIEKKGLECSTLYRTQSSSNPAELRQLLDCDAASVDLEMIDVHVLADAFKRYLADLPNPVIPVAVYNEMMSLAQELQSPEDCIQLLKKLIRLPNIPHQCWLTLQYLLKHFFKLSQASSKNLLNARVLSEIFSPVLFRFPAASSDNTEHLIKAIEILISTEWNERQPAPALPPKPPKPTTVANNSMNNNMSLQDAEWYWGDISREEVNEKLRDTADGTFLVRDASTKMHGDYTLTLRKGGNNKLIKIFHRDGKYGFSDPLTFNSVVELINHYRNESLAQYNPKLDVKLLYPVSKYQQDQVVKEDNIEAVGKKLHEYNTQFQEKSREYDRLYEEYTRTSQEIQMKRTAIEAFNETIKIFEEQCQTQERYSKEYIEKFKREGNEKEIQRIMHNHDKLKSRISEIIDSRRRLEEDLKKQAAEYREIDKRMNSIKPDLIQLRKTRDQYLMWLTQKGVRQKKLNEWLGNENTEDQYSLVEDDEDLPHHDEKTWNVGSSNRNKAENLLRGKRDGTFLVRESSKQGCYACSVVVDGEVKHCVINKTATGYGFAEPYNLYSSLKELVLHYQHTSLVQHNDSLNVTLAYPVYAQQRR
Sequence of UniProt Q62077 (Q62077 whole entry, looked up, the tested form may be a part): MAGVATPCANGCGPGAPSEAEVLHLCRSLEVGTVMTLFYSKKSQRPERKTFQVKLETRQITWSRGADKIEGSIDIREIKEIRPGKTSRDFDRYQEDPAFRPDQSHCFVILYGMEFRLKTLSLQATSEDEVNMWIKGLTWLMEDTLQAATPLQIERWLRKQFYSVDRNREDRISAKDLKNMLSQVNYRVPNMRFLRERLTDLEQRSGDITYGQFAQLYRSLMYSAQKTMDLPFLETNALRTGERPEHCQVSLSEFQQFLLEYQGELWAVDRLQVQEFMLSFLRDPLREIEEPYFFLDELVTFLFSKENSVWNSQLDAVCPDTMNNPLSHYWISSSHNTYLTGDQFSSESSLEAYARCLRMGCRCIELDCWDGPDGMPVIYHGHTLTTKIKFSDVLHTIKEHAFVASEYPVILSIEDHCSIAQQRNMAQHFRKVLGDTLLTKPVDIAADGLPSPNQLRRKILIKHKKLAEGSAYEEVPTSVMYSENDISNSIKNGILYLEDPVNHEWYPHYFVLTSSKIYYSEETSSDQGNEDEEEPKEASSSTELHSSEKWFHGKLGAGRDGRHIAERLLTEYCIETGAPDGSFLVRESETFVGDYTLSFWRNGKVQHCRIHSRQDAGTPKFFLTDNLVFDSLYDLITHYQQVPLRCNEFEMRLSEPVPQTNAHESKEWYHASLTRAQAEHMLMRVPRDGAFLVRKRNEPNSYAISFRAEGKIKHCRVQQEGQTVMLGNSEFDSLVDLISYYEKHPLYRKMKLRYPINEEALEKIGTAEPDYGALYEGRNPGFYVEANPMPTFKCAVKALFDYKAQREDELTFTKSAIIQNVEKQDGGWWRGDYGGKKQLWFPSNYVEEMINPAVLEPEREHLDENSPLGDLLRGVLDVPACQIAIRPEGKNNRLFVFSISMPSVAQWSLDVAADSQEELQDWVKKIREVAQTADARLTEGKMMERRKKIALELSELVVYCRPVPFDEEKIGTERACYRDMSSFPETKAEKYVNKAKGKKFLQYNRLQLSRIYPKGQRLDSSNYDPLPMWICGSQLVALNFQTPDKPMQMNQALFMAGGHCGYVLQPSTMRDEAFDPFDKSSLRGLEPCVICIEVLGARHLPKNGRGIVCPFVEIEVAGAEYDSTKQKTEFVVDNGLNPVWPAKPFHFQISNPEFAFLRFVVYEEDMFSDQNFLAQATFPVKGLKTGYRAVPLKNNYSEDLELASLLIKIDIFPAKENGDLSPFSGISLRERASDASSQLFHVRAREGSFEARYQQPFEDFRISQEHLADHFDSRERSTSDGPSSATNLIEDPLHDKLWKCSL
Sequence of UniProt Q8BGG7 (Q8BGG7 whole entry, looked up, the tested form may be a part): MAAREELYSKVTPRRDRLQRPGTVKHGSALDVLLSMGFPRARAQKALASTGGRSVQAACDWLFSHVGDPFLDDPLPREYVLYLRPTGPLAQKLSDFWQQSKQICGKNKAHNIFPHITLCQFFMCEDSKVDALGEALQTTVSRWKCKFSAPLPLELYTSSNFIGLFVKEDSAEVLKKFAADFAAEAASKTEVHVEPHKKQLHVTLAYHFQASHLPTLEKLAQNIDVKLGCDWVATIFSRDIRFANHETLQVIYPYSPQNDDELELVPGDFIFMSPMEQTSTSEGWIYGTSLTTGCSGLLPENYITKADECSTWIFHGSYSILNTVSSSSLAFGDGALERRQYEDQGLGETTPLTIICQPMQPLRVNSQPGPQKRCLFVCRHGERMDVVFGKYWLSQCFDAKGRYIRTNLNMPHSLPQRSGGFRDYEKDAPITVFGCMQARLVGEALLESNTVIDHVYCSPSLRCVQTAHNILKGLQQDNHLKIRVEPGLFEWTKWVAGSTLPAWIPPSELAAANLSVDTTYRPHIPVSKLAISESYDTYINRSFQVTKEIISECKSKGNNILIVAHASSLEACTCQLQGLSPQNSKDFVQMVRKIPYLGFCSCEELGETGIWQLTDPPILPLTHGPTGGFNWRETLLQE
Sequence of UniProt Q03160 (Q03160 whole entry, looked up, the tested form may be a part): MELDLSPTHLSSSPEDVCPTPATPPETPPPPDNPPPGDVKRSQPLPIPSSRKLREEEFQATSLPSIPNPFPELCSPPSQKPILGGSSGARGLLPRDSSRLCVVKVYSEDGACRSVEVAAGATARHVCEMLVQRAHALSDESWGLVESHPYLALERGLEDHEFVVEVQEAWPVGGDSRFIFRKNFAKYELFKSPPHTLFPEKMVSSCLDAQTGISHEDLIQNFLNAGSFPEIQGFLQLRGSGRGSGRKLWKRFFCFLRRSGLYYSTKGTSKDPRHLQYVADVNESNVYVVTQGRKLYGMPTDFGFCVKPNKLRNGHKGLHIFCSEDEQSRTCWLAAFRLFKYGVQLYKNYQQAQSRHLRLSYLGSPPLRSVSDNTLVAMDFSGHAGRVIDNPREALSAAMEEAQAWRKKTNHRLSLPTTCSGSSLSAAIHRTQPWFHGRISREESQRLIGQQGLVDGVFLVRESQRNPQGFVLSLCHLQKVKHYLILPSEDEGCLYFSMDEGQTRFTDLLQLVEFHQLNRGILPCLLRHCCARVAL
Sequence of UniProt E9Q7D5 (E9Q7D5 whole entry, looked up, the tested form may be a part): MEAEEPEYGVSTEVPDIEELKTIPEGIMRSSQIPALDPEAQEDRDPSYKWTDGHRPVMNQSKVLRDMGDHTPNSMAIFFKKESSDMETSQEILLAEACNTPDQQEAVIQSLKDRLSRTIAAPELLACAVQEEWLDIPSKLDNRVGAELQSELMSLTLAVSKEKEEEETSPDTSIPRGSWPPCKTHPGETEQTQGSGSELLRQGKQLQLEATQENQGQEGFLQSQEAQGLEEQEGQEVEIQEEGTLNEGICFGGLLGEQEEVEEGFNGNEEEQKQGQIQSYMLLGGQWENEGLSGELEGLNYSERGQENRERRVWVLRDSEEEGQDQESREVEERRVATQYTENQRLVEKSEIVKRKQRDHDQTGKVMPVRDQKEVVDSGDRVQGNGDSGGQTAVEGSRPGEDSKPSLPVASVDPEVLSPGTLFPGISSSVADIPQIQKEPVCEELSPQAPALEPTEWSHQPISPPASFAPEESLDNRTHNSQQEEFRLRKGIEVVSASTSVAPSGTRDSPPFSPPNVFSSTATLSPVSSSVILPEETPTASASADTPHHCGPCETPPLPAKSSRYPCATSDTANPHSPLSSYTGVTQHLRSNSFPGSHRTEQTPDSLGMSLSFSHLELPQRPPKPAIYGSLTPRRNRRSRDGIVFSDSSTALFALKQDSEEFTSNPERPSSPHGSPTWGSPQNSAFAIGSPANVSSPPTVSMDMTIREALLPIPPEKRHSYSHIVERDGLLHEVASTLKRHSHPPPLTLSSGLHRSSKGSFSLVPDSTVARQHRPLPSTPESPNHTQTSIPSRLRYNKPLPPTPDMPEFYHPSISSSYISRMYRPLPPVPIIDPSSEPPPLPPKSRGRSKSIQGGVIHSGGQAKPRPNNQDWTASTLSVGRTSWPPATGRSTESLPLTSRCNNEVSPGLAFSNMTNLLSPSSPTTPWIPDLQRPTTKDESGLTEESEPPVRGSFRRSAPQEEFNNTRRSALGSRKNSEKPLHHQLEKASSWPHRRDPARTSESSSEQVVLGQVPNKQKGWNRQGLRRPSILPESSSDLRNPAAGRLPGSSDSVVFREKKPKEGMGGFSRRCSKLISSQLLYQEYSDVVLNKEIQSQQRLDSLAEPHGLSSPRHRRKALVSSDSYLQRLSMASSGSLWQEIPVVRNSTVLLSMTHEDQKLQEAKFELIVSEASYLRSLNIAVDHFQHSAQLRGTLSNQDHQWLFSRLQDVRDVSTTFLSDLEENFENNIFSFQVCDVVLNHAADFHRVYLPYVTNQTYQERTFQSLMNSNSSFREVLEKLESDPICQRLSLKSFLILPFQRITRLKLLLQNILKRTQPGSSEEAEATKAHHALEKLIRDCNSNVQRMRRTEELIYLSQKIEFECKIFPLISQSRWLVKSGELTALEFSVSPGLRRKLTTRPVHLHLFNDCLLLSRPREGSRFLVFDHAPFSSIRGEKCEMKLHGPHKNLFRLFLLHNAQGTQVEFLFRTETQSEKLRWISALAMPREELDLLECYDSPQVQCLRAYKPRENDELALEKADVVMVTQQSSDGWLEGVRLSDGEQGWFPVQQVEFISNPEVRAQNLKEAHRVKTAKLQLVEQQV

Shc1 (p52Shc1) CH1 region, 107 residues (from UniProt P98083-2) pYpYYS fragment
stronger: Grb7; sites Y239,Y240 | Grb2 [1] | Pik3r1 [2]; [9] | Arhgef5 | Grb2 [3] | Pik3r1 [4]; [9]

Shc1 (p52Shc1) CH1 region, 107 residues (from UniProt P98083-2) pYpYpYpS fragment
stronger: Ubash3b (Sts1) [5]; [10] | Ubash3b (Sts1) [5]; [11] | Plcg1 [6]; [10] | Plcg1 [6]; [11] | Pik3r1 [2]; [11] | Ubash3b (Sts1) [7] | Plcg1 [8] | Pik3r1 [4]; [11]

Shc1 (p52Shc1) CH1 region, 107 residues (from UniProt P98083-2) pYYYS fragment
stronger: Grb7; sites Y239
